Source: the supplement of paper PMC12764529
± gives the half width of the 95% confidence interval.

Tests used:
[1] = folding stability dG unfold from chymotrypsin proteolysis; higher = more stable
Procedure: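 Folding stability of de novo designed mini-proteins (<80 aa, no Cys; designed by TrROS, TrMRF, ProteinMPNN and the joint model) was measured by cDNA display proteolysis with trypsin and chymotrypsin. Each protease was used at 11 concentrations in a threefold dilution series plus a no-protease condition. K50 was inferred by Bayesian fitting of sequencing counts, and dG unfold was derived against a sequence-predicted unfolded-state K50 (Tsuboyama et al. method). Sequences shown include variable-length N-terminal GS-type padding (SAGGSAGG...) inside a display construct carrying a PA tag. Rows were kept only if the AF2 dimer inter-PAE was >15, to exclude likely homo-oligomers.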

[2] = folding stability dG unfold (combined trypsin and chymotrypsin); higher = more stable
Summary of the method: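 Only designs with AlphaFold2 dimer inter-PAE above 15 were retained; each was a mini-protein under 80 residues with no cysteine, in a PA-tagged cDNA display construct. After digestion with trypsin and chymotrypsin and sequencing, K50 was inferred by Bayesian fitting of counts, and unfolding free energy was derived per protease or combined against a sequence-predicted unfolded-state K50 and a shared folded-state K50.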

| Sequence | folding stability dG unfold [1] | folding stability dG unfold [2] |
| --- | --- | --- |
| SAGGSAGGSAGGSATVTTTTTSGATITPPALTELPSGYVAVVTPTGDTLNVVIAPKALLSAGGSAGGSAGGS [r4_279_JUSTAS] | 0.214 ± 0.26 kcal/mol | -0.966 ± 0.49 kcal/mol |
| SAGGSAGGSAGGSDDGSGVRLETFTVTGKGATVTLPDGSTLTVPADQTVTVTRLEVLPKSAGGSAGGSAGGS [r4_26_TrMRF] | -0.509 ± 0.23 kcal/mol | < -1 kcal/mol |
| SAGGSAGGSAGGSGFILKESPDSVLSYDAITGETKKVPSKDVVLEYDPNNGVYTLTVSKSAGGSAGGSAGGS [r4_127_JUSTAS] | 0.639 ± 0.12 kcal/mol | 0.168 ± 0.17 kcal/mol |
| SAGGSAGGSAGGSGMEEIEEKMKKGYTFTVTSSSPNKTYTIKPEEVSKFKDESISVKAESAGGSAGGSAGGS [r4_157_JUSTAS] | -1.4 ± 0.84 kcal/mol | < -1 kcal/mol |
| SAGGSAGGSAGGSGPDETILVTRKVTTTEPVLLEHDGTPRVRERTVTRTSSTTERVDLSSAGGSAGGSAGGS [r4_271_JUSTAS] | -0.146 ± 0.21 kcal/mol | -0.835 ± 0.32 kcal/mol |
| SAGGSAGGSAGGSGSTTPIPATGATLTTETLPDGSPLYTLTDPATGATTTYPPGAPVGLSAGGSAGGSAGGS [r4_158_JUSTAS] | -0.26 ± 0.07 kcal/mol | < -1 kcal/mol |
| SAGGSAGGSAGGSKLKEGEKYKVYFKKTKKELEVETLEQLKALEKAGKKVEIVKIEKVPSAGGSAGGSAGGS [r4_214_TrROS_Hall] | 0.153 ± 0.21 kcal/mol | -0.269 ± 0.14 kcal/mol |
| SAGGSAGGSAGGSKSIYISPDDPNNIRTPDDGEPFKGMPIEEAKKEGIEPRGPNAFRIPSAGGSAGGSAGGS [r4_306_TrROS] | -0.152 ± 0.36 kcal/mol | -0.582 ± 0.54 kcal/mol |
| SAGGSAGGSAGGSKVYVLVPVPNPEAIWEKVKALGPDAKVNSVEFLPGEGYLRVEVDAPSAGGSAGGSAGGS [r10_23_TrMRF] | -0.318 ± 0.49 kcal/mol | < -1 kcal/mol |
| SAGGSAGGSAGGSMKSVPVITTTTTVLPNGTTVTTTTVNNVTSSGTTSSTTTTVTPSLLSAGGSAGGSAGGS [r4_486_JUSTAS] | -0.571 ± 0.15 kcal/mol | -0.836 ± 0.22 kcal/mol |
| SAGGSAGGSAGGSMLTVRSSSTTPLPDGSTVTTYEVNDKPYLVRVDPNGPVVTVKPLSLLSAGGSAGGSAGG [r7_772_JUSTAS] | -0.367 ± 0.4 kcal/mol | -0.473 ± 0.29 kcal/mol |
| SAGGSAGGSAGGSMVIKFTHPDGDPNLPVETLNLKKEELSEEKIKELKEKNPDIKIELKSAGGSAGGSAGGS [r4_422_JUSTAS] | 0.257 ± 0.33 kcal/mol | -0.326 ± 0.39 kcal/mol |
| SAGGSAGGSAGGSPILIPRPDDYVLVVRIEEPRPLPDGDLAPPRIDVRLMPREEVERLLSAGGSAGGSAGGS [r4_238_TrMRF] | 0.992 ± 0.08 kcal/mol | 0.378 ± 0.12 kcal/mol |
| SAGGSAGGSAGGSPVLKTEEKALPNGTVVTTEFLPGGRRREVITPPDGTVKVVEREIERSAGGSAGGSAGGS [r10_1184_JUSTAS] | 0.356 ± 0.019 kcal/mol | -0.0994 ± 0.095 kcal/mol |
| SAGGSAGGSAGGSRYLRIETDRIDDVVEAALKTPGVEEVRVDTPADDRFYVLVKVPDEVSAGGSAGGSAGGS [r4_1_TrMRF] | -1.13 ± 0.92 kcal/mol | < -1 kcal/mol |
| SAGGSAGGSAGGSSARVPFPATGAVLEVRVTPDGRPRVRVFNPATGEVVEFPPGAEVGVSAGGSAGGSAGGS [r4_158_TrMRF] | 0.762 ± 0.036 kcal/mol | 0.0259 ± 0.13 kcal/mol |
| SAGGSAGGSAGGSSMKEVTLYVPPGTLDPAVVEKLREEGVKVTVVPVPLSREPDGPPVASAGGSAGGSAGGS [r4_294_JUSTAS] | 0.965 ± 0.17 kcal/mol | 0.0503 ± 0.38 kcal/mol |
| SAGGSAGGSAGGSSMKYFTRSASPDTTFTVKTPNGGVVNVTPTAAPGTYKYTFTLPGNSSAGGSAGGSAGGS [r4_360_JUSTAS] | -0.42 ± 0.44 kcal/mol | < -1 kcal/mol |
| SAGGSAGGSAGGSSSMVEVEVESEEELEAYLEPLAARGVEVTLTSRDPETGRWLLRVTPPSAGGSAGGSAGG [r7_964_JUSTAS] | 0.233 ± 0.2 kcal/mol | -0.0911 ± 0.2 kcal/mol |
| SAGGSAGGSAGGSVTIPVPENVKVRIYPPNGGRREVTAAAGATITVPAPGGEEVRIEVETSAGGSAGGSAGG [r7_357_TrMRF] | 0.715 ± 0.021 kcal/mol | 0.193 ± 0.1 kcal/mol |
| SAGGSAGGSAGGSWRVRIDLPNGKSRTIPIKPGEEVDLNEIADELSDKYNIKSISIEEPSAGGSAGGSAGGS [r4_116_TrROS] | 0.42 ± 0.14 kcal/mol | -0.158 ± 0.29 kcal/mol |

| Sequence | folding stability dG unfold [1] | folding stability dG unfold [2] |
| --- | --- | --- |
| SAGGSAGGSAGGTIKKVSDGTIVIPVPNPHQAEKFADTLMEKNNGRDVKIKVFPPEDFGPSAGGSAGGSAGG [r7_645_TrROS] | -0.264 ± 0.1 kcal/mol | < -1 kcal/mol |
| SAGGSAGGSAGGVLYLPDDVKVELVEVTPDGVAKLRVYVYEKDDGDPLVPVPGYDPGAGSAGGSAGGSAGGS [r10_934_TrMRF] | 0.126 ± 0.36 kcal/mol | -0.777 ± 0.48 kcal/mol |
| SAGGSAGGSAGGWIVRIEHGGKERMFQFDSPEEIKDQIRPMFPNGKKVKVEVMPPDDLKSAGGSAGGSAGGS [r10_1167_TrROS] | -0.0912 ± 0.16 kcal/mol | -0.483 ± 0.21 kcal/mol |
| SAGGSAGGSAGIPADAPEAVVRLDLYPDGPDTVVTVEAPFKDIPLDDIPENAVVRLEASPLGSAGGSAGGSA [r18_21_TrMRF] | 0.0909 ± 0.06 kcal/mol | -0.539 ± 0.1 kcal/mol |
| SAGGSAGGSAGKALVFDSPEDLVEKLKENGVELTDIAEVDAPGGPVVLAPIEGIPKPGFGSAGGSAGGSAGG [r11_141_TrMRF] | 0.633 ± 0.065 kcal/mol | 0.28 ± 0.16 kcal/mol |
| SAGGSAGGSAGKKFKITEIHPGDNHHHITVKWKRDGKKRERTVMVPSGPEMAKKADIIIISAGGSAGGSAGG [r11_921_TrROS] | -0.547 ± 0.48 kcal/mol | < -1 kcal/mol |
| SAGGSAGGSAGMEVIINDPEKAKNIPVNSKVKLPNGKEYKVKKVEYNPEIGYVKFIVSPESAGGSAGGSAGG [r11_316_TrMRF] | -0.489 ± 0.37 kcal/mol | -0.588 ± 0.34 kcal/mol |
| SAGGSAGGSAGMKLIEFPPGEEFEEFIKNLPGPIKSVERTKIEPEKVLAKIVLELPPSNLSAGGSAGGSAGG [r11_143_JUSTAS] | -0.545 ± 0.36 kcal/mol | < -1 kcal/mol |
| SAGGSAGGSAGMKTRVTTFTYTEPVLLPDTGELRTVTTTVTFNKPLPEEPLFFTNTPNAGSAGGSAGGSAGG [r17_493_JUSTAS] | 0.149 ± 0.19 kcal/mol | -0.158 ± 0.19 kcal/mol |
| SAGGSAGGSAGMKVKSIKKLSKDPKNGKETFEITIPENGEKVTIETEPGKFEEVKKKLLKSAGGSAGGSAGG [r17_111_JUSTAS] | 0.359 ± 0.089 kcal/mol | -0.0508 ± 0.13 kcal/mol |
| SAGGSAGGSAGMLKTIVIKELTPEAKKALLENPDLPEDAEVPTLVEELTVPVKRTPKGLVSAGGSAGGSAGG [r17_194_JUSTAS] | -0.0656 ± 0.077 kcal/mol | -0.398 ± 0.13 kcal/mol |
| SAGGSAGGSAGMLTTKTITLPHAPDDPAAFRAAVLKGLPPELPVLSVDYDPATGTGTVVASAGGSAGGSAGG [r11_698_JUSTAS] | 0.0666 ± 0.31 kcal/mol | < -1 kcal/mol |
| SAGGSAGGSAGMPLEELAQEALNQFQENGEPVEIDIEVETPNGEYFPFEVEINGDGLKIRSAGGSAGGSAGG [r11_954_TrROS] | 0.455 ± 0.068 kcal/mol | -0.0909 ± 0.32 kcal/mol |
| SAGGSAGGSAGMTLVKTYERFPETGTVVERLSAREPDGPTVPLEVTKVRPVAGEEPVPLLSAGGSAGGSAGG [r11_750_JUSTAS] | -0.665 ± 0.23 kcal/mol | < -1 kcal/mol |
| SAGGSAGGSAGNADQIKEIARKYAPKNGMKPKDVDIEVEERENPNGKKELHIDVEGEYKNSAGGSAGGSAGG [r11_414_TrROS] | 0.00121 ± 0.46 kcal/mol | < -1 kcal/mol |
| SAGGSAGGSAGPMWRIEVENPNGRTPEIWIPPNMDTPEELVDELKKHFPGLKKVKIEPYPSAGGSAGGSAGG [r11_311_TrROS] | 0.184 ± 0.12 kcal/mol | -0.391 ± 0.27 kcal/mol |
| SAGGSAGGSAGPPGEPVRIKLKFPNGNPIEIPGKLDDAEEIAEELQSEGFPFSKVEVEKWSAGGSAGGSAGG [r11_946_TrROS] | -0.257 ± 0.49 kcal/mol | -0.603 ± 0.51 kcal/mol |
| SAGGSAGGSAGPWVPIAPGPNGMWIWAEPDPDKFTIRMFPMSPDGKIPDVQEHEIPPEDFSAGGSAGGSAGG [r11_88_TrROS] | 0.156 ± 0.22 kcal/mol | -0.216 ± 0.17 kcal/mol |
| SAGGSAGGSAGSMTVTSKYTLPGSSDVPVEVEVYSEAPVAVLTKPGAKTVLPLEALKALLSAGGSAGGSAGG [r11_370_JUSTAS] | 0.346 ± 0.14 kcal/mol | -0.0987 ± 0.084 kcal/mol |
| SAGGSAGGSAGSNVVYLGEEVITEVDPYSDKPYTVKVKVYLEPTPEGEKIIEEVLEKELLSAGGSAGGSAGG [r11_113_JUSTAS] | -0.719 ± 0.29 kcal/mol | -0.94 ± 0.33 kcal/mol |
| SAGGSAGGSAGYPPVPPAVVQAVVDELPRLGYTPKAVVVGEGPDLPFVLVVADDKVLLVRGSAGGSAGGSAG [r3_395_TrMRF] | 0.524 ± 0.096 kcal/mol | -0.379 ± 0.14 kcal/mol |
